Here are results for 6 molecules from US20120041177A1 (SPIBER TECHNOLOGIES AB C O RISING, published 2012).

Data set [1] concerns the molecule itself. As to the kind of experiment: self-polymerisation at pH 6; macroscopic formation and SEM. Here is the method:
Conditions for fiber formation were essentially as described in Stark, M. et al. Biomacromolecules 8, 1695-1701, (2007). Approximately 25 μM of each protein was incubated in 20 mM Na phosphate buffer at pH 7 or 6, with or without 300 mM NaCl. At different time points, samples were applied on SEM stubs, where they were air-dried and vacuum-coated with gold and palladium. The samples were photographed with a LEO 1550 FEG microscope (Carl Zeiss, Oberkochen, Germany) using an acceleration voltage of 5 kV.
The arrows in FIG. 3 indicate when macroscopic formations first were detected, showing that at pH 7 the presence of NT delays polymerisation, while at pH 6 it accelerates polymerisation. This is independent of whether the C-terminal fragment (filled circle) is present or not (indicated by the striped circle). Moreover, the presence of NT results in more ordered polymerisation, exemplified by the scanning electron micrographs in FIG. 3, which are representative early polymers for all constructs at pH 7 (above time scale) or for NT4RepCT at pH 6 (below time scale).

The next data set concerns the target T1, NT-REP4-CT.
T1 construct: Stood in the assay as a solid fiber (about 0.5 cm, about 50 ug) or as a cast film; also called NT4RepCT
T1 chain: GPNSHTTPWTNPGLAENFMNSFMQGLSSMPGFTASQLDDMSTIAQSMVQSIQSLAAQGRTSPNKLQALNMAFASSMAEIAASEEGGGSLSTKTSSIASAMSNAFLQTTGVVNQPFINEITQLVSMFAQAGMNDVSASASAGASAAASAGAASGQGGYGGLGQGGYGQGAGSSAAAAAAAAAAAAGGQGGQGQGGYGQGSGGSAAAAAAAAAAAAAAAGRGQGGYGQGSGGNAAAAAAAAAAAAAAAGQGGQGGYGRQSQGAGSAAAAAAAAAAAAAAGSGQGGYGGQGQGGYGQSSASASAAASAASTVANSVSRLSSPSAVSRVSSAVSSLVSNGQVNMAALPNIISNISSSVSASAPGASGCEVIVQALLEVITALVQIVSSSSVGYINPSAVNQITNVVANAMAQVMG
As to the kind of experiment: capture of soluble protein on fibers at pH 6, release at pH 7, SDS-PAGE; 300 mM NaCl decreased capture at pH 6. The method, then: (§1) Fibers (˜0.5 cm long, ˜50 ug) of NT-REP₄-CT (SEQ ID NO 20), NT₂-REP₄-CT (SEQ ID NO 23) and REP₄-CT (SEQ ID NO 2, control) were submerged in 100 μl solution of 5 mg/ml soluble NTHis (SEQ ID NO 30) or NT₂-Brichos (SEQ ID NO 32) at pH 8 for 10 minutes. The pH was decreased by addition of 400 ul sodium phosphate buffer (NaP) to pH 6 and incubated for 10 minutes to allow assembly of soluble NT to the fiber. The fibers were transferred to 500 μl of NaP at pH 6, and washed twice. Finally, the fibers were transferred to 500 μl of NaP at pH 7, and incubated 10 minutes to allow release of soluble NT. The same was done in the presence of 300 mM NaCl in all pH 6 NaP buffers. Samples from the different solutions were analysed on SDS-PAGE.

In another data set the target is T2, NT2-REP4-CT.
T2 construct: Stood in the assay as a solid fiber; also called NTNT-REP-CT; HisNTNT4RepCT
T2 chain: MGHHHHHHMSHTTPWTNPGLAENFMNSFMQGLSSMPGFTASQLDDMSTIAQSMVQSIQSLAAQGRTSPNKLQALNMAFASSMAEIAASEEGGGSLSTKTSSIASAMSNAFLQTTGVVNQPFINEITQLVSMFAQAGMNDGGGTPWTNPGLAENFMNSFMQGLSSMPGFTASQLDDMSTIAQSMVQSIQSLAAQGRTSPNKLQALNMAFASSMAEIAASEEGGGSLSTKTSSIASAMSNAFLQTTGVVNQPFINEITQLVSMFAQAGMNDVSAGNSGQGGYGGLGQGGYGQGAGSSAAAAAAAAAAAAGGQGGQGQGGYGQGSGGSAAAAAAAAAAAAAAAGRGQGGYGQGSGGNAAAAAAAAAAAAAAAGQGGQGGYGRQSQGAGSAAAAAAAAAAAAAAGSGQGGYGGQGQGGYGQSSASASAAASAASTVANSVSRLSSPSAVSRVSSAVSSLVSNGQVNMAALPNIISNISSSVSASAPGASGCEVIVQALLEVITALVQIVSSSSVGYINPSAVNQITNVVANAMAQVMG
The description is as above. Here is the method: as §1

Data set [2] concerns the molecule itself. As to the kind of experiment: self-polymerisation at pH 6.
Data set [3] concerns the molecule itself. As to the kind of experiment: self-polymerisation at pH 6; macroscopic formation, SEM and turbidimetry.
Data set [4] deals with the molecule itself. Put plainly: self-association; dynamic light scattering and turbidimetry; reversed by an increase of pH, blocked by high levels of salt. The method, then:
The effect of pH and ionic strength on the hydrodynamic diameter of NT and NTΔHis6 (to exclude that pH dependent effects are caused by His at position 6) was measured at 25±0.1° C. in a Zetasizer Nano S from Malvern Instruments (Worcestershire, UK) equipped with a 633 nm HeNe laser. The buffers were filtered through nylon filters prior to use. The sample volume was 50 μl and ZEN2112 low glass cuvettes were used. The attenuation and measurement positions from the cuvette wall (4.65 mm) were kept constant for all analyses. Six scans were performed for each sample. All samples were analyzed in triplicate. The hydrodynamic diameter (dH) was calculated using the General Purpose algorithm in the Malvern software for DLS analysis, which correlates the diffusion coefficient to the hydrodynamic diameter through the Stokes-Einstein equation: […]
NT was subjected to dynamic light scattering at pH 6-7 and 0-300 mM NaCl. See also Table 3

B1: NT4RepCT (as an N-terminal fusion to His6) (other)
chain: MKASHTTPWTNPGLAENFMNSFMQGLSSMPGFTASQLDDMSTIAQSMVQSIQSLAAQGRTSPNKLQALNMAFASSMAEIAASEEGGGSLSTKTSSIASAMSNAFLQTTGVVNQPFINEITQLVSMFAQAGMNDVSASASAGASAAASAGAASGQGGYGGLGQGGYGQGAGSSAAAAAAAAAAAAGGQGGQGQGGYGQGSGGSAAAAAAAAAAAAAAAGRGQGGYGQGSGGNAAAAAAAAAAAAAAAGQGGQGGYGRQSQGAGSAAAAAAAAAAAAAAGSGQGGYGGQGQGGYGQSSASASAAASAASTVANSVSRLSSPSAVSRVSSAVSSLVSNGQVNMAALPNIISNISSSVSASAPGASGCEVIVQALLEVITALVQIVSSSSVGYINPSAVNQITNVVANAMAQVMGKLAAALEHHHHHH
notes: also called NT4RepCTHis
Take B1: the binding result in data set [1] is recorded as “binds”.

B2: NT2-Brichos (other)
chain: MGHHHHHHMSHTTPWTNPGLAENFMNSFMQGLSSMPGFTASQLDDMSTIAQSMVQSIQSLAAQGRTSPNKLQALNMAFASSMAEIAASEEGGGSLSTKTSSIASAMSNAFLQTTGVVNQPFINEITQLVSMFAQAGMNDGGGTPWTNPGLAENFMNSFMQGLSSMPGFTASQLDDMSTIAQSMVQSIQSLAAQGRTSPNKLQALNMAFASSMAEIAASEEGGGSLSTKTSSIASAMSNAFLQTTGVVNQPFINEITQLVSMFAQAGMNDVSAGNSEHLVTTATFSIGSTGLVVYDYQQLLIAYKPAPGTCCYIMKIAPESIPSLEALTRKVHNFQMECSLQAKPAVPTSKLGQAEGRDAGSAPSGGDPAFLGMAVSTLCGEVPLYYI
notes: Soluble fusion protein with His6, used at 5 mg/ml; also called NT-NT-Brichos; NTNTBrichos
With B2, the binding result with NT-REP4-CT and in the data set with NT2-REP4-CT was “binds” throughout.

B3: NT5Rep (other)
chain: GSGNSHTTPWTNPGLAENFMNSFMQGLSSMPGFTASQLDDMSTIAQSMVQSIQSLAAQGRTSPNKLQALNMAFASSMAEIAASEEGGGSLSTKTSSIASAMSNAFLQTTGVVNQPFINEITQLVSMFAQAGMNDVSASASAGASAAASAGAPGYSPAPSYSSGGYASSAASAAAAAGQGGPGGYGPAPNQGASSAAAAAAGSGQGPSGPYGTSYQISTQYTQTTTSQGQGYGSSSAGAAAAGAAGAGQGGYGGQGQGGYGQGAGGAAAAAAAAAAAAAAAGQGGQGGGGYGQGGQGGQGGQGQGGYGQGAGSSAAAAAAAAAAAAAAGRGQGGYGPGSGG
notes: Non-natural minispidroin derived from Euprosthenops australis MaSp1; Released from His6TrxHis6 by thrombin
B3: the binding result in data set [2] is on record as “binds”.

B4: NTHis (other)
chain: MSHTTPWTNPGLAENFMNSFMQGLSSMPGFTASQLDDMSTIAQSMVQSIQSLAAQGRTSPNKLQALNMAFASSMAEIAASEEGGGSLSTKTSSIASAMSNAFLQTTGVVNQPFINEITQLVSMFAQAGMNDVSASASAGASAAASAGAAALEHHHHHH
notes: Soluble protein, used at 5 mg/ml; also called NT as an N-terminal fusion to His6; soluble NT
Take B4: the binding result in the data set with NT-REP4-CT and in the data set with NT2-REP4-CT was “binds” each time.

B5: NT4Rep (other)
chain: GSGNSHTTPWTNPGLAENFMNSFMQGLSSMPGFTASQLDDMSTIAQSMVQSIQSLAAQGRTSPNKLQALNMAFASSMAEIAASEEGGGSLSTKTSSIASAMSNAFLQTTGVVNQPFINEITQLVSMFAQAGMNDVSASASAGASAAASAGAASGQGGYGGLGQGGYGQGAGSSAAAAAAAAAAAAGGQGGQGQGGYGQGSGGSAAAAAAAAAAAAAAAGRGQGGYGQGSGGNAAAAAAAAAAAAAAAGQGGQGGYGRQSQGAGSAAAAAAAAAAAAAAGSGQGGYGGQGQGGYGQS
notes: as for B3
In the case of B5, in data set [3], the binding result was “binds”.

B6: NT, N-terminal fragment of major ampullate spidroin (MaSp) 1 from Euprosthenops australis (other)
chain: GSGNSHTTPWTNPGLAENFMNSFMQGLSSMPGFTASQLDDMSTIAQSMVQSIQSLAAQGRTSPNKLQALNMAFASSMAEIAASEEGGGSLSTKTSSIASAMSNAFLQTTGVVNQPFINEITQLVSMFAQAGMNDVSA
notes: Expressed as a C-terminal fusion to His6TrxHis6 and released by thrombin
For the molecule B6, the binding result in data set [4] is on record as “binds”.
